The values that follow come from the supplement of paper PMC10724198.

± gives the standard deviation of the averaged measurements.
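Note: PSI is a weighted mean of sequencing reads over stability bins, variants kept only with over 10 reads, mCherry proximal and sfGFP distal, peptide attached via GGGS linker.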

The test system of this data set is Saccharomyces cerevisiae. The data set is described as follows: protein stability index of tFT-peptide fusion (C-terminal peptide) (PSI (0-1 scale)); higher = more stable (slower turnover). The following applies: genetic background: wild type; temperature: 30 C.
As to KTKKRKTKKKTK, the protein stability index was 0.723 ± 0.036. KTKKTKRRHKAE displayed a protein stability index of 0.662 ± 0.022. For KTKNIKTKDKPE the value was 0.673 ± 0.024; for KTKSKNGNQRAT, 0.711 ± 0.025; for KTQKKKKKNKNF, 0.51 ± 0.028. For KTVKNGKEVKIH the value was 0.635 ± 0.12; for KTVVYDDRKQLR, 0.674 ± 0.0096; for KVAILAIPKCWT, 0.644 ± 0.022. For KVDRREGSRGGG the value was 0.6816 ± 0.004. Turning to KVGLGGRLQSYP, the protein stability index came to 0.6338 ± 0.0054. With KVKGGELVRTLR the figure was 0.736 ± 0.021.

The sequence KVSPTAGLTSRI came in with a protein stability index of 0.711 ± 0.061.

Consider KVSSCLTNFILV, for which the protein stability index amounted to 0.552 ± 0.029. For KVVSGLKSGPVQ the value was 0.677 ± 0.055; for KWSETGQDGIER, 0.701 ± 0.081; for KYIKNKKEKTEE, 0.701 ± 0.017. As to KYISKKKKEKKK, the protein stability index stood at 0.684 ± 0.06. For KYPVDHHTPLSS the value was 0.703 ± 0.021; for LAARRHRACPPR, 0.67 ± 0.014; for LAASVTERPAGR, 0.703 ± 0.011.

Sequence LAAWQPTSYASV had a protein stability index of 0.592 ± 0.092. With LACLPPLLLFSL the figure was 0.539 ± 0.00097; with LADSLILWRFPT, 0.722 ± 0.087. In turn, LAEFTCTQGCSY yielded a protein stability index of 0.67 ± 0.088. For LAFGLGSFVWNC the value was 0.6765 ± 0.00075; for LAKVNSLLGFSK, 0.734 ± 0.037; for LALDPVNLVTSL, 0.682 ± 0.051.

LAPLRGHDHSRA displayed a protein stability index of 0.6638 ± 0.0055. The sequence LARLFQLLERPW registered a protein stability index of 0.688 ± 0.063. With LATIPTFPPLPP the figure was 0.634 ± 0.089; with LCAFPFSHPSSI, 0.74 ± 0.05; with LCGAFLPPPFSR, 0.686 ± 0.052. With LCGLDCLLRPCY the figure was 0.681 ± 0.011; with LCGYAMSFRPLG, 0.73 ± 0.091.

In turn, LCHLSSFLAALS showed a protein stability index of 0.618 ± 0.012. With LCILIFLFRCIL the figure was 0.551 ± 0.036; with LCLDHAKQNPGK, 0.6641 ± 0.0051. In turn, LCLRPVISLPHL displayed a protein stability index of 0.716 ± 0.075. For LCPLPPPTVPLP the value was 0.742 ± 0.02; for LCPVLRSPFFLF, 0.55128 ± 0.00052; for LCVAFWLGLPTT, 0.598 ± 0.011. For LCVGQVGLWVGR the value was 0.703 ± 0.042; for LCYLPLTLPPVL, 0.582 ± 0.036; for LDEQIKIRIKEK, 0.721 ± 0.046.

Turning to LDFSAWRYGRSW, the protein stability index was determined as 0.83 ± 0.038.

In the case of LDGLFWHRPCFK, the protein stability index came out at 0.734 ± 0.061.

LDLSIKNPIKWR yielded a protein stability index of 0.747 ± 0.089. For LDQQKSCHLIFL the value was 0.663 ± 0.033; for LDSPGIDRRSFM, 0.737 ± 0.064. For LEGGACFGVCEW the value was 0.6956 ± 0.0048.

As to LERDRLINVLPI, the protein stability index was 0.726 ± 0.042. Take LESEDDRKLSLL: the protein stability index is 0.659 ± 0.011. With LETETKKPQNQK the figure was 0.724 ± 0.11; with LFCLCYDVCVPS, 0.662 ± 0.035; with LFCVSGSRPLTF, 0.714 ± 0.034. Regarding LFFLRFSHFFVG, the protein stability index is 0.605 ± 0.014. For LFFRVLDRLGEI the value was 0.726 ± 0.021; for LFGAIPRVEHAD, 0.718 ± 0.088; for LFGNPVLSYFVI, 0.5549 ± 0.0053. For LFLARLSGHFGA the value was 0.728 ± 0.16. Sequence LFLCSGWVACWW yielded a protein stability index of 0.498 ± 0.013.

In the case of LFLGLLLMNDWL, the protein stability index worked out at 0.774 ± 0.096. For LFLLPPLLPLPP, the protein stability index was found to be 0.7361 ± 0.00058.

As to LFLPYLPPRPLL, the protein stability index was found to be 0.7642 ± 0.0064. For LFLTPTSPVAAL the value was 0.651 ± 0.065; for LFLVWSLGSGRN, 0.672 ± 0.098; for LFPGSHHLSRFF, 0.7587 ± 0.005. On to LFPIYFVCNYSA, for which the protein stability index was found to be 0.508 ± 0.0075. With LFPRFPPPAPPL the figure was 0.723 ± 0.099; with LFPRPSILKGVP, 0.657 ± 0.091; with LFPSSGTRLTPS, 0.667 ± 0.027. With LFPVTAIACRPS the figure was 0.7266 ± 0.006; with LFRPNWLPLSNN, 0.634 ± 0.018.

As to LFRPSPPRPLPP, the protein stability index was 0.651 ± 0.0071. With LFRRPSVVFLFV the figure was 0.496 ± 0.062.

In the case of LFSFCQGCISFC, the protein stability index is 0.715 ± 0.02. For LFSPPPPPIPSP the value was 0.73 ± 0.0078; for LFSRSSHGRFLT, 0.624 ± 0.041. As to LFSSPPSLPPPL, the protein stability index is 0.739 ± 0.036. For LFSVLLFFFFHL the value was 0.522 ± 0.069.
